# Laboratory results from patent publication US10064926B2, “Peptides and combination of peptides for use in immunotherapy against hepatocellular carcinoma (HCC) and other cancers” (Immatics biotechnologies GmbH, priority 2014, dated 2018).
# Molecular target: HLA-A*02 (Homo sapiens, UniProt P04439, D140Y/D185E/D98H/E176V/E277Q/G131W/G231S/I119V/I121R/I166T/I218V/N151K/N90K/P208A/P217A/Q86G/Q94H/R138H/R169H)
# Assay: UV-ligand exchange / peptide binding to MHC class I (beta2m ELISA)
# Details: Table 10A; peptide exchange yield, UV-ligand exchange, β2m ELISA
# Excerpt: Candidate peptides for T cell based therapies according to the present invention were further tested for their MHC binding capacity (affinity). The individual peptide-MHC complexes were produced by UV-ligand exchange, where a UV-sensitive peptide is cleaved upon UV-irradiation, and exchanged with the peptide of interest as analyzed. Only peptide candidates that can effectively bind and stabilize the peptide-receptive MHC molecules prevent dissociation of the MHC complexes. To determine the yield of the exchange reaction, an ELISA was performed based on the detection of the light chain (β2m) of stabilized MHC complexes. The assay was performed as generally described in Rodenko et al. (Rodenko B, Toebes M, Hadrup S R, van Esch W J, Molenaar A M, Schumacher T N, Ovaa H. Generation of peptide-MHC class I complexes through UV-mediated ligand exchange. Nat Protoc. 2006; 1(3):1120-32).
# 96 well MAXISorp plates (NUNC) were coated over night with 2 ug/ml streptavidin in PBS at room temperature, washed 4× and blocked for 1 h at 37° C. in 2% BSA containing blocking buffer. Refolded HLA-A*0201/MLA-001 monomers served as standards, covering the range of 15-500 ng/ml. Peptide-MHC monomers of the UV-exchange reaction were diluted 100 fold in blocking buffer. Samples were incubated for 1 h at 37° C., washed four times, incubated with 2 ug/ml HRP conjugated anti-β2m for 1 h at 37° C., washed again and detected with TMB solution that is stopped with […]. Absorption was measured at 450 nm. Candidate peptides that show a high exchange yield (preferably higher than 50%, most preferred higher than 75%) are generally preferred for a generation and production of antibodies or fragments thereof, and/or T cell receptors or fragments thereof, as they show sufficient avidity to the MHC molecules and prevent dissociation of the MHC complexes.
row,Peptide exchange (MHC class I binding score),Substance
1,++++ (>=75% = ++++),5 (ALVEQGFTV; listed as Homo sapiens) [compound 5]
2,+++ (50%-75% = +++),8 (KLLEEATISV; listed as Homo sapiens) [compound 8]
3,++++ (>=75% = ++++),13 (GLIDTETAMKAV; listed as Homo sapiens) [compound 13]

# Same assay, conditions: Table 10B; peptide exchange yield; HLA-A*02 peptides
row,Substance,Peptide exchange (MHC class I binding score)
1,9 (ALANQKLYSV; listed as Homo sapiens) [compound 9],“+++” (≥50 = +++)
2,19 (FLEETKATV; listed as Homo sapiens) [compound 19],“+++” (≥50 = +++)
3,20 (KLSNVLQQV; listed as Homo sapiens) [compound 20],“++++” (≥75% = ++++)
4,21 (QLIEVSSPITL; listed as Homo sapiens) [compound 21],“++++” (≥75% = ++++)
5,23 (RLYDPASGTISL; listed as Homo sapiens) [compound 23],“+++” (≥50 = +++)
6,24 (SLAEEKLQASV; listed as Homo sapiens) [compound 24],“+++” (≥50 = +++)
7,26 (SLLHTIYEV; listed as Homo sapiens) [compound 26],“+++” (≥50 = +++)
8,27 (TLPDFRLPEI; listed as Homo sapiens) [compound 27],“++++” (≥75% = ++++)
9,29 (YIQDEINTI; listed as Homo sapiens) [compound 29],“+++” (≥50 = +++)
10,30 (YLGEGPRMV; listed as Homo sapiens) [compound 30],“+++” (≥50 = +++)
11,31 (YQMDIQQEL; listed as Homo sapiens) [compound 31],“+++” (≥50 = +++)
12,32 (ALNAVRLLV; listed as Homo sapiens) [compound 32],“++++” (≥75% = ++++)
13,33 (LLHGHIVEL; listed as Homo sapiens) [compound 33],“+++” (≥50 = +++)
14,34 (SLAEGTATV; listed as Homo sapiens) [compound 34],“+++” (≥50 = +++)
15,37 (LLLPLLPPLSP; listed as Homo sapiens) [compound 37],“+++” (≥50 = +++)
16,38 (ALADVVHEA; listed as Homo sapiens) [compound 38],“+++” (≥50 = +++)
17,40 (ALLAEGITWV; listed as Homo sapiens) [compound 40],“+++” (≥50 = +++)

row,Substance,Peptide exchange (MHC class I binding score)
1,42 (ALLGGNVRMML; listed as Homo sapiens) [compound 42],“+++” (≥50 = +++)
2,44 (ALQDAIRQL; listed as Homo sapiens) [compound 44],“++++” (≥75% = ++++)
3,46 (AMAEMKVVL; listed as Homo sapiens) [compound 46],“+++” (≥50 = +++)
4,47 (FLDTPIAKV; listed as Homo sapiens) [compound 47],“++” (≥20% = ++)
5,48 (FLLEQPEIQV; listed as Homo sapiens) [compound 48],“+++” (≥50 = +++)
6,51 (GLAEELVRA; listed as Homo sapiens) [compound 51],“++” (≥20% = ++)
7,52 (GLFNAELLEA; listed as Homo sapiens) [compound 52],“+++” (≥50 = +++)
8,54 (GLLDPNVKSIFV; listed as Homo sapiens) [compound 54],“+++” (≥50 = +++)
9,58 (ILADLNLSV; listed as Homo sapiens) [compound 58],“++++” (≥75% = ++++)
10,60 (ILSPLSVAL; listed as Homo sapiens) [compound 60],“++++” (≥75% = ++++)
11,62 (KIAGTNAEV; listed as Homo sapiens) [compound 62],“++” (≥20% = ++)
12,63 (KIDEKNFVV; listed as Homo sapiens) [compound 63],“+++” (≥50 = +++)
13,64 (KILEETLYV; listed as Homo sapiens) [compound 64],“+++” (≥50 = +++)
14,66 (KLHEEIDRV; listed as Homo sapiens) [compound 66],“+++” (≥50 = +++)
15,70 (KLLDLETERILL; listed as Homo sapiens) [compound 70],“++++” (≥75% = ++++)
16,72 (KLSEAVTSV; listed as Homo sapiens) [compound 72],“+++” (≥50 = +++)
17,74 (KLYDLELIV; listed as Homo sapiens) [compound 74],“+++” (≥50 = +++)

# Next, values leading:
row,Peptide exchange (MHC class I binding score),Substance
1,“+++” (≥50 = +++),3 (ILDDNMQKL; listed as Homo sapiens) [compound 3]
2,“++++” (≥75% = ++++),5 (ALVEQGFTV; listed as Homo sapiens) [compound 5]
3,“+++” (≥50 = +++),8 (KLLEEATISV; listed as Homo sapiens) [compound 8]
4,“++++” (≥75% = ++++),13 (GLIDTETAMKAV; listed as Homo sapiens) [compound 13]
5,“+++” (≥50 = +++),17 (RVASPTSGV; listed as Homo sapiens) [compound 17]
6,“+++” (≥50 = +++),18 (ALYGKTEVV; listed as Homo sapiens) [compound 18]
7,“++++” (≥75% = ++++),22 (RIAGIRGIQGV; listed as Homo sapiens) [compound 22]
8,“+++” (≥50 = +++),25 (SLDGKAALTEL; listed as Homo sapiens) [compound 25]
9,“+++” (≥50 = +++),28 (TLQDHLNSL; listed as Homo sapiens) [compound 28]
10,“+++” (≥50 = +++),35 (SLQESILAQV; listed as Homo sapiens) [compound 35]
11,“+++” (≥50 = +++),36 (ILNVDGLIGV; listed as Homo sapiens) [compound 36]
12,“+++” (≥50 = +++),39 (ALDPKANFST; listed as Homo sapiens) [compound 39]
13,“++++” (≥75% = ++++),41 (ALLELDEPLVL; listed as Homo sapiens) [compound 41]
14,“++++” (≥75% = ++++),45 (ALQDQLVLV; listed as Homo sapiens) [compound 45]
15,“++” (≥20% = ++),49 (FLYPEKDEPT; listed as Homo sapiens) [compound 49]
16,“++” (≥20% = ++),50 (FTIPKLYQL; listed as Homo sapiens) [compound 50]
17,“+++” (≥50 = +++),53 (GLIHLEGDTV; listed as Homo sapiens) [compound 53]
18,“+++” (≥50 = +++),55 (GLYGRTIEL; listed as Homo sapiens) [compound 55]
19,“+++” (≥50 = +++),56 (GVLPGLVGV; listed as Homo sapiens) [compound 56]
20,“+++” (≥50 = +++),57 (HLTEAIQYV; listed as Homo sapiens) [compound 57]
21,“+++” (≥50 = +++),59 (ILADTFIGV; listed as Homo sapiens) [compound 59]
22,“++++” (≥75% = ++++),61 (KIADFELPTI; listed as Homo sapiens) [compound 61]
23,“+++” (≥50 = +++),65 (KLFSGDELLEV; listed as Homo sapiens) [compound 65]
24,“+++” (≥50 = +++),67 (KLKETIQKL; listed as Homo sapiens) [compound 67]
25,“++” (≥20% = ++),68 (KLLAATVLLL; listed as Homo sapiens) [compound 68]
26,“++++” (≥75% = ++++),69 (KLLDEVTYLEA; listed as Homo sapiens) [compound 69]
27,“++++” (≥75% = ++++),71 (KLLDNWDSV; listed as Homo sapiens) [compound 71]
28,“++” (≥20% = ++),75 (KQMEPLHAV; listed as Homo sapiens) [compound 75]
29,“+++” (≥50 = +++),76 (LLADIGGDPFAA; listed as Homo sapiens) [compound 76]
30,“+++” (≥50 = +++),77 (LLHEENFSV; listed as Homo sapiens) [compound 77]
